Laboratory results: patent US20080138352A1 (INSTITUT PASTEUR, published 2008)

Target: the molecule itself
Experiment: size exclusion chromatography, Superdex 75, pH 6.0 (self-association, homodimer)

B1: recombinant Trypanosoma cruzi proline racemase TcPRACA (rTcPRACA), C-terminal His6-tagged (enzyme)
chain: GQEKLLFDQKYKIIKGEKKEKKKNQRANRREHQQKREIMRFKKSFTCIDMHTEGEAARIVTSGLPHIPGSNMAEKKAYLQENMDYLRRGIMLEPRGHDDMFGAFLFDPIEEGADLGMVFMDTGGYLNMCGHNSIAAVTAAVETGIVSVPAKATNVPVVLDTPAGLVRGTAHLQSGTESEVSNASIINVPSFLYQQDVVVVLPKPYGEVRVDIAFGGNFFAIVPAEQLGIDISVQNLSRLQEAGELLRTEINRSVKVQHPQLPHINTVDCVEIYGPPTNPEANYKNVVIFGNRQADRSPCGTGTSAKMATLYAKGQLRIGETFVYESILGSLFQGRVLGEERIPGVKVPVTKDAEEGMLVVTAEITGKAFIMGFNTMLFDPTDPFKNGFTLKQ
notes: the entry below describes its self-association into a homodimer; also called TcPA45; not shown: C-terminal six-histidine tag from pET28b(+)
B1: binds.
